Laboratory results reported in patent US20130078245A1 (REGENTS OF THE UNIVERSITY OF COLORADO A BODY CORPORATE, published 2013).

Biological target: T1, recombinant human C3d (human, UniProt P01024 996-1303, limits assumed)
T1 construct: domain: C3d; The Biacore paragraph says only C3d; also called recombinant C3d
Assay: BIAcore SPR, C3d immobilized on the chip, antibody at 10, 30 and 90 nM in flow, 1:1 Langmuir fit
Description: The binding affinity of the anti-C3d/C3dg antibodies to C3d was further tested by BIAcore analysis.

T1 sequence (P01024 996-1303 limits assumed): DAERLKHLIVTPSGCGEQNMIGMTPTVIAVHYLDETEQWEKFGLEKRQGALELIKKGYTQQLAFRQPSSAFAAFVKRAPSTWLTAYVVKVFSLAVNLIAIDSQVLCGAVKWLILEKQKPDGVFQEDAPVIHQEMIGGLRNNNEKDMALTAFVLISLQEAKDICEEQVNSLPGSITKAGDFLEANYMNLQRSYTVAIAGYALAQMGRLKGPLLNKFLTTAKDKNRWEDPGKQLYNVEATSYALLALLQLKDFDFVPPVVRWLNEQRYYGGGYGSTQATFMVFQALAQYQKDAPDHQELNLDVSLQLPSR

B1: mouse monoclonal anti-C3d antibody 3d29, produced by hybridoma cell line 3d-29/5/2 (ATCC PTA-11000) (antibody, V domains shown)
VH: EVQLQQSGPVLVKPGASVKMSCKASGYTFTDYYMNWVKQSHGKSLEWIGVINPYNGGTSYNQKFKGKATLTVDKSSRTAYMELNSLTSEDSAVYYCSRGGPYWGQGTTLTVSS
VL: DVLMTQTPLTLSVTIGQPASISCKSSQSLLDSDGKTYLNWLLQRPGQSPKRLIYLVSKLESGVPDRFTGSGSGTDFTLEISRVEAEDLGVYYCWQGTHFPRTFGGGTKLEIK
notes: Whole mouse IgG purified on protein G; also called mAb 3d29; clone 3d29
Kd: 1.06 nM
